{"source": "patent US20030036169A1", "about": "(University of Texas, published 2003)", "binders": {"B1": {"name": "peptide corresponding to the extreme C-terminus of human Presenilin 1 (CMDQLAFHQFYI) (peptide)", "peptide": "CMDQLAFHQFYI", "modifications": "also: immobilized on SulfoLink beads", "notes": "Has an added N-terminal Cys and is immobilized on SulfoLink beads; also called Pres1; presenilin 1 column"}, "B2": {"name": "Mint 1 PDZ1* (other)", "chain": "MNHLEGSAEVEVADEAPGGEVNESVEADLEHPEVEEEQQPSPPPPAGHAPEDHRAHPAPPPPPPPQEEEEERGECLARSASTESGFHNHTDTAEGDVLAAARDGYEAERAQDADDESAYAVQYRPEAEEYTEQAEAEHAEAAQRRALPNHLHFHSLEHEEAMNAAYSGYVYTHRLFHRAEDEPYAEPYADYGGLQEHVYEEIGDAPELEARDGLRLYERERDEAAAYRQEALGARLHHYDERSDGESDSPEKEAEFAPYPRMDSYEQEEDIDQIVAEVKQSMSSQSLDKAAEDMPEAEQDLERAPTPGGGHPDSPGLPAPAGQQQRVVGTPGGSEVGQRYSKEKRDAISLAIKDIKEAIEEVKTRTIRSPYTPDEPKEPIWVMRQDISPTRDCDDQRPVDGDSPSPGSSSPLGAESSITPLHPGDPTEASTNKESRKSLASFPTYVEVPGPCDPEDLIDGIIFAANYLGSTQLLSDKTPSKNVRMMQAQEAVSRIKTAQKLAKSRKKAPEGESQPMTEVDLFISTQRIKVLNADTQEPMMDHPLRTISYIADIGNIVVLMARRRMPRSNSQENVEASHPSQDAKRQYKMICHVFESEDAQLIAQSIGQAFSVAYQEFLRANGINPEDLSQKEYSDLLNTQDMYNDDLIHFSKSENCKDVFIEKQKGEILAAVIVESGWGSILPTVIIANMMHGGPAEKSGKLNIGDQIMSINGTSLVGLPLSTCQSIIKGLKNQSRVKLNIVRCPPVTTVLIRRPDLRYQLGFSVQNGIICSLMRGGIAERGGVRVGHRIIEINGQSVVATPHEKIVHILSNAVGEIHMKTMPAAMYRLLTAQEQPVYI", "notes": "Produced in transfected COS or HEK293 cells; also called pCMV-Mint 1-PDZ1*"}, "B3": {"name": "peptide corresponding to the extreme C-terminus of human HPV2 (poliovirus receptor-related protein 2; CGSLISRRAVYV) (peptide)", "peptide": "CGSLISRRAVYV", "modifications": "also: immobilized on SulfoLink beads", "notes": "Negative control peptide immobilized on SulfoLink beads; also called HPV2 control peptide"}, "B4": {"name": "peptide corresponding to the extreme C-terminus of human Presenilin 2 (CMDTLASHQLYI) (peptide)", "peptide": "CMDTLASHQLYI", "modifications": "also: immobilized on SulfoLink beads", "notes": "Has an added N-terminal Cys and is immobilized on SulfoLink beads; also called presenilin 2 C-terminal peptide"}, "B5": {"name": "peptide corresponding to the extreme C-terminus of Drosophila Presenilin (CMEDLSAKQVFI) (peptide)", "peptide": "CMEDLSAKQVFI", "modifications": "also: immobilized on SulfoLink beads", "notes": "Has an added N-terminal Cys and is immobilized on SulfoLink beads; also called Drosophila presenilin C-terminal peptide"}, "B6": {"name": "peptide derived from the gp41 glycoprotein (CWFSITNWLWYI) (peptide)", "peptide": "CWFSITNWLWYI", "modifications": "also: immobilized on SulfoLink beads", "notes": "Negative control peptide immobilized on SulfoLink beads; also called gp41 control peptide; Control"}, "B7": {"name": "Mint 1 ΔPDZ (other)", "chain": "MNHLEGSAEVEVADEAPGGEVNESVEADLEHPEVEEEQQPSPPPPAGHAPEDHRAHPAPPPPPPPQEEEEERGECLARSASTESGFHNHTDTAEGDVLAAARDGYEAERAQDADDESAYAVQYRPEAEEYTEQAEAEHAEAAQRRALPNHLHFHSLEHEEAMNAAYSGYVYTHRLFHRAEDEPYAEPYADYGGLQEHVYEEIGDAPELEARDGLRLYERERDEAAAYRQEALGARLHHYDERSDGESDSPEKEAEFAPYPRMDSYEQEEDIDQIVAEVKQSMSSQSLDKAAEDMPEAEQDLERAPTPGGGHPDSPGLPAPAGQQQRVVGTPGGSEVGQRYSKEKRDAISLAIKDIKEAIEEVKTRTIRSPYTPDEPKEPIWVMRQDISPTRDCDDQRPVDGDSPSPGSSSPLGAESSITPLHPGDPTEASTNKESRKSLASFPTYVEVPGPCDPEDLIDGIIFAANYLGSTQLLSDKTPSKNVRMMQAQEAVSRIKTAQKLAKSRKKAPEGESQPMTEVDLFISTQRIKVLNADTQEPMMDHPLRTISYIADIGNIVVLMARRRMPRSNSQENVEASHPSQDAKRQYKMICHVFESEDAQLIAQSIGQAFSVAYQEFLRANGINPEDLSQKEYSDLLNTQDMYNDDLIHFSKSENCKDV"}, "B8": {"name": "immobilized cytoplasmic peptide derived from APP (CGYENPTYKFFEQMQN) (peptide)", "peptide": "CGYENPTYKFFEQMQN", "modifications": "not fully specified (residue 1); also: immobilized on SulfoLink beads via N-terminal Cys", "notes": "Coupled through the added N-terminal Cys to SulfoLink beads; also called immobilized cytoplasmic tail of APP; immobilized APP tail"}}, "key": {"[1]": {"target": "T1, Mint 3 (rat, UniProt O70248 1-569)", "T1 construct": "Endogenous rat brain protein or full-length rat Mint 3 from a pCMV5 vector; also called Mints/X11 3; pCMV-Mint 3", "T1 sequence (looked up)": "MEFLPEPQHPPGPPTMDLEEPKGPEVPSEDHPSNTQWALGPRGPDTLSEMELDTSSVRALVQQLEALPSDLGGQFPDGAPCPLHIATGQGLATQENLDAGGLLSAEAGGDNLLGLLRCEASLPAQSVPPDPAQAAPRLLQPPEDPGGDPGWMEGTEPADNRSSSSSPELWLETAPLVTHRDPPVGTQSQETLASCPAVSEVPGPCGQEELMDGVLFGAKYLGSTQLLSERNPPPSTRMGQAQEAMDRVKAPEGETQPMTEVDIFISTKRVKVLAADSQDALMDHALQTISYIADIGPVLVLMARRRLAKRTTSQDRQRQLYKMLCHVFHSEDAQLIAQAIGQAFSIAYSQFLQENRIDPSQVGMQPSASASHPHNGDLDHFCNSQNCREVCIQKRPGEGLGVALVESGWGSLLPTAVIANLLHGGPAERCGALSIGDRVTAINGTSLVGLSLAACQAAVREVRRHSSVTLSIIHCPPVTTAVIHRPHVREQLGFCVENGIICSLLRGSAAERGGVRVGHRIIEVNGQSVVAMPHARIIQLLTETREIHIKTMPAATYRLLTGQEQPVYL", "assay": "affinity chromatography on the immobilized presenilin 1 C-terminal peptide, immunoblot"}, "[2]": {"target": "T2, Mint 1 (rat, UniProt O35430 1-839)", "T2 construct": "Full-length rat Mint 1 from pCMV5 vectors in transfected COS/HEK293 cells; also called Mints/X11 1; wild-type Mint 1", "T2 sequence": "B2 chain with A670G, A671V", "assay": "affinity chromatography on the immobilized presenilin 1 C-terminal peptide, immunoblot"}, "[3]": {"target": "T3, Mint 2 (rat, UniProt O35431 1-750)", "T3 construct": "Endogenous rat brain protein or full-length rat Mint 2 from a pCMV5 vector; also called Mints/X11 2; pCMV-Mint 2", "T3 sequence": "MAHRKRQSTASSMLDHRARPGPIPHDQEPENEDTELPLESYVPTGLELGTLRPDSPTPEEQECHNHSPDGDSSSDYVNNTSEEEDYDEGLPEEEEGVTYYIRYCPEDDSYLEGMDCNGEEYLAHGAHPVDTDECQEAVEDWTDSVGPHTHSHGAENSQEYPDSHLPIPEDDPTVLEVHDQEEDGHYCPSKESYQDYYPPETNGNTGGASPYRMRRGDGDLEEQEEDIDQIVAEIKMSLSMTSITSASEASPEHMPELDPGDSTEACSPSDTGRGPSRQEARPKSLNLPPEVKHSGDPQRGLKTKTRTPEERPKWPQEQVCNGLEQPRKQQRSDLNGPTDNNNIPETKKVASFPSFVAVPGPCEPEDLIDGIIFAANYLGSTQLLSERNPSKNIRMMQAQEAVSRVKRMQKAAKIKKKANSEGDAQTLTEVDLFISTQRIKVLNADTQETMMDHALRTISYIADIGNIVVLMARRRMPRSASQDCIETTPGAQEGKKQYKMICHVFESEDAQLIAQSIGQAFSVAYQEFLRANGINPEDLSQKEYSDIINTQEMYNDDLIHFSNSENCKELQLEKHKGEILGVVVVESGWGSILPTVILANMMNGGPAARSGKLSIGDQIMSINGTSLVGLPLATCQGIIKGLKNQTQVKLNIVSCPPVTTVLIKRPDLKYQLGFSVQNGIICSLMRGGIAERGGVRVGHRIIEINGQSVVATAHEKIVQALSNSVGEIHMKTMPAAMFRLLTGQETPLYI", "assay": "affinity chromatography of rat forebrain membrane proteins on the immobilized presenilin 1 C-terminal peptide, immunoblot"}, "[4]": {"target": "PSD95 (rat, UniProt P31016 1-724)", "sequence (P31016 whole entry)": "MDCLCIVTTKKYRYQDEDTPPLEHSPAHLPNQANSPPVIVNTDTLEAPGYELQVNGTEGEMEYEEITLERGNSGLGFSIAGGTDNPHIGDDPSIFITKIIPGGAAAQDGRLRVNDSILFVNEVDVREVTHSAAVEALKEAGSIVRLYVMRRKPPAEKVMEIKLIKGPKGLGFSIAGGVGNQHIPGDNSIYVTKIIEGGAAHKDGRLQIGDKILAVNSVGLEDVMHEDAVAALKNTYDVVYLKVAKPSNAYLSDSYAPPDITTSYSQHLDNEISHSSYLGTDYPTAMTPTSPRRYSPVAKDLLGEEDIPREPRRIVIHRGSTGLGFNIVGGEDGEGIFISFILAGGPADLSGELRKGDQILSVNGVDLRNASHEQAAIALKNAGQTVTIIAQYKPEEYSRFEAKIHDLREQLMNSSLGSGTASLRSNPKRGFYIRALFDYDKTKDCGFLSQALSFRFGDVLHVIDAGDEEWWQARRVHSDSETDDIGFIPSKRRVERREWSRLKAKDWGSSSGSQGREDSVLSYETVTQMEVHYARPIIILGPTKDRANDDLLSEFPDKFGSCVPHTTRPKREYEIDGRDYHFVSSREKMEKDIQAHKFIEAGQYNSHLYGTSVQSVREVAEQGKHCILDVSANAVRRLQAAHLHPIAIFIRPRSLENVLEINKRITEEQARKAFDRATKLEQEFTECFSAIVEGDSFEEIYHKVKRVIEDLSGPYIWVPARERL", "assay": "affinity chromatography of rat forebrain membrane proteins on the immobilized presenilin 1 C-terminal peptide, immunoblot"}, "[5]": {"target": "T4, synaptophysin 1 (Syp) (rat, UniProt P07825 1-307)", "T4 construct": "Negative control protein", "T4 sequence (P07825 whole entry)": "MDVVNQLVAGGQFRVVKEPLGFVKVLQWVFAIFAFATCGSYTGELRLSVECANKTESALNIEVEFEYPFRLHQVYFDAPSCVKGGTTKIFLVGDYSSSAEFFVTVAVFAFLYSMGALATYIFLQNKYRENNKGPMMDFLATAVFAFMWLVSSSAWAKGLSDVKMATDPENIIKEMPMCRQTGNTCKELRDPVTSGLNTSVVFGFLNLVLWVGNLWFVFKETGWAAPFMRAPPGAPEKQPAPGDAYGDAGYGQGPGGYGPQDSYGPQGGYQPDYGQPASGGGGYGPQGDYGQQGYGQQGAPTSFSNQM", "assay": "affinity chromatography of rat forebrain membrane proteins on the presenilin 1 C-terminal peptide"}, "[6]": {"target": "B1", "assay": "affinity chromatography of COS cell-expressed Mint 1 proteins on the immobilized presenilin 1 C-terminal peptide"}, "[7]": {"target": "T2, Mint 1", "assay": "affinity chromatography on the immobilized HPV2 control peptide"}, "[8]": {"target": "T2, Mint 1", "assay": "affinity chromatography on the immobilized presenilin 2 C-terminal peptide"}, "[9]": {"target": "T2, Mint 1", "assay": "affinity chromatography on the immobilized Drosophila presenilin C-terminal peptide"}, "[10]": {"target": "T3, Mint 2", "assay": "affinity chromatography of rat forebrain membrane proteins on the gp41 control peptide"}, "[11]": {"target": "T1, Mint 3", "assay": "affinity chromatography of rat forebrain membrane proteins on the gp41 control peptide"}, "[12]": {"target": "T2, Mint 1", "assay": "affinity chromatography of rat brain extract on the immobilized gp41 control peptide, immunoblot"}, "[13]": {"target": "APP-Gal4/VP16 fusion protein (human; yeast, UniProt P05067 18-651; P04386 1-147; P06492 413-490; P05067 652-695)", "assay": "cell-based or functional assay"}, "[14]": {"target": "T3, Mint 2", "assay": "affinity chromatography on the immobilized APP tail peptide, immunoblot"}, "[15]": {"target": "T1, Mint 3", "assay": "affinity chromatography on the immobilized APP tail peptide, immunoblot"}, "[16]": {"target": "T2, Mint 1", "assay": "affinity chromatography on the immobilized APP tail peptide, immunoblot"}}, "note": "Positions count from the first letter of the chain named. No end group written: not given here."}
{"binder": "B1", "values": [{"measurement": "binding result", "setting": "[1]", "value": "binds"}, {"measurement": "binding result", "setting": "[2]", "value": "binds"}, {"measurement": "binding result", "setting": "[3]", "value": "binds"}, {"measurement": "binding result", "setting": "[4]", "value": "binds"}, {"measurement": "binding result", "setting": "[5]", "value": "no binding"}]}
{"binder": "B2", "values": [{"measurement": "fold decrease in binding against wild-type Mint 1", "setting": "[6]", "value": "~2", "unit": "fold decrease"}]}
{"binder": "B3", "values": [{"measurement": "binding result", "setting": "[7]", "value": "no binding"}]}
{"binder": "B4", "values": [{"measurement": "binding result", "setting": "[8]", "value": "binds"}]}
{"binder": "B5", "values": [{"measurement": "binding result", "setting": "[9]", "value": "binds"}]}
{"binder": "B6", "values": [{"measurement": "binding result", "setting": "[10]", "value": "no binding"}, {"measurement": "binding result", "setting": "[11]", "value": "no binding"}, {"measurement": "binding result", "setting": "[12]", "value": "no binding"}]}
{"binder": "B7", "values": [{"measurement": "potency of inhibition of transactivation relative to wild-type Mint 1 (normalized to expressed protein)", "setting": "[13]", "value": "~10 times more potent than wild-type Mint 1"}]}
{"binder": "B8", "values": [{"measurement": "binding result", "setting": "[14]", "value": "binds"}, {"measurement": "binding result", "setting": "[15]", "value": "binds"}, {"measurement": "binding result", "setting": "[16]", "value": "binds"}]}
